Data from the supplement of paper PMC6757056.
± gives the standard deviation of the averaged measurements.

B1: library; a variant is named by its letters at N, in order (parent)
chain: GCUGUCACCGGAAUACCAGCAUCGUCUUGAUGCCCUUGGAAGUCCGGUCUGAUGAGUCCNNNNNGGACGAAACAGC

Legend:
theophylline [1] = variants of: B1; test: FACS-Seq fitted mean relative fluorescence mCherry/BFP without ligand (log10 relative fluorescence); higher = higher reporter protein expression; conditions: HEK293T, ligand present: no
How it was run: (§1)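 With or without ligand for 48 h, enriched HEK293T libraries carrying a lentiviral ribozyme-switch mCherry reporter and EF1α-BFP were sorted into 6 mCherry/BFP bins. Bin genomic DNA was amplified by PCR, barcoded and sequenced on MiSeq. Fluorescence was taken from normal fits to the resulting bin counts. Each fitted mean of log10(mCherry/BFP) was scaled to five spiked-in control ribozymes.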

theophylline [2] = variants of: B1; test: normalized RNA/DNA level with ligand (relative to sTRSVctl = 100) (log10 (% of sTRSVctl)); higher = less ribozyme self-cleavage, higher mRNA level; conditions: ligand concentration (+) RNA-Seq: 5 mM, HEK293T, reporter: mCherry (pCS4076), ligand present: yes
How it was run: (§2)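 Library plasmids carrying ribozyme switches linked to mCherry, or to eGFP in some ligand experiments, were transfected into HEK293T at 4 µg per 6-well well, with any ligand added 1 h earlier. Seventy-two hours on, total RNA was extracted with EDTA and reverse-transcribed, amplified, barcoded and sequenced. RNA level was RNA over DNA reads normalized to a spiked-in non-cleaving sequence or to the top sequences, then scaled and log-transformed. The top set was 25 sequences, the transform was ×100 and log10, and sequences needed ≥100 DNA reads.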

theophylline [3] = variants of: B1; test: normalized RNA/DNA level without ligand (relative to sTRSVctl = 100) (log10 (% of sTRSVctl)); higher = less ribozyme self-cleavage, higher mRNA level; conditions: HEK293T, reporter: mCherry (pCS4076), ligand present: no
How it was run: as §2

theophylline [4] = variants of: B1; test: FACS-Seq fitted mean relative fluorescence mCherry/BFP with ligand (log10 relative fluorescence); ligand concentration (+) FACS-Seq: 1 mM; higher = higher reporter protein expression; conditions: HEK293T, ligand present: yes
How it was run: as §1

Variant	FACS-Seq fitted mean (log10) (theophylline [1])	normalized RNA/DNA level with ligand (log10) (theophylline [2])	normalized RNA/DNA level without ligand (log10) (theophylline [3])	FACS-Seq fitted mean (log10) (theophylline [4])
ACUUU	0.872 ± 0.15	2.012 ± 0.0039	1.89 ± 0.022	0.813 ± 0.11
UCUUU	0.989 ± 0.015	2.019 ± 0.0067	1.86 ± 0.14	1.04 ± 0.1
UCUUG	0.933 ± 0.1	1.94 ± 0.18	1.94 ± 0.037	1.01 ± 0.025
CCUCU	0.198 ± 0.07	1.93 ± 0.039	1.87 ± 0.036	0.0585 ± 0.1
CCUCC	0.993 ± 0.035	2.092 ± 0.0026	2.0411 ± 0.0014	0.89 ± 0.046
ACCCU	0.718 ± 0.011	2.023 ± 0.016	1.93 ± 0.091	0.587 ± 0.09
ACCCC	0.753 ± 0.1	2.037 ± 0.0066	1.99 ± 0.053	0.657 ± 0.08
ACCCA	0.9 ± 0.021	2.02 ± 0.044	1.93 ± 0.066	0.869 ± 0.033
ACCCG	0.917 ± 0.11	2 ± 0.012	1.94 ± 0.12	0.973 ± 0.031
ACUGA	0.423 ± 0.012	1.96 ± 0.19	1.68 ± 0.18	0.613 ± 0.023
ACUGC	0.883 ± 0.038	2.01 ± 0.031	1.95 ± 0.058	0.793 ± 0.067
ACUGG	1 ± 0.065	2.05 ± 0.12	1.91 ± 0.091	0.915 ± 0.066
ACUGU	0.698 ± 0.1	2.027 ± 0.011	1.89 ± 0.087	0.626 ± 0.07
UCUGA	0.9 ± 0.11	2.04 ± 0.035	1.89 ± 0.056	0.983 ± 0.1
UCUGG	0.976 ± 0.062	2.057 ± 0.0087	2.01 ± 0.064	1.012 ± 0.0062
UCUGU	0.6475 ± 0.0019	2.099 ± 0.014	2.01 ± 0.1	0.6442 ± 0.0018
UCUGC	0.365 ± 0.16	1.98 ± 0.096	2.02 ± 0.032	0.642 ± 0.034
AGACA	0.0301 ± 0.062	1.87 ± 0.04	1.72 ± 0.031	0.35727 ± 0.0003

Variant	FACS-Seq fitted mean (log10) (theophylline [1])	normalized RNA/DNA level with ligand (log10) (theophylline [2])	normalized RNA/DNA level without ligand (log10) (theophylline [3])	FACS-Seq fitted mean (log10) (theophylline [4])
AGACG	0.74 ± 0.1	2.01 ± 0.082	1.89 ± 0.021	0.863 ± 0.018
ACCUG	1.02 ± 0.063	2.01 ± 0.025	1.89 ± 0.043	0.898 ± 0.044
ACCUU	1.31 ± 0.14	2.04 ± 0.038	1.95 ± 0.047	1.27 ± 0.14
ACCUC	0.785 ± 0.011	2.04 ± 0.034	1.98 ± 0.042	0.737 ± 0.044
ACCUA	1.18 ± 0.18	1.94 ± 0.021	1.88 ± 0.16	1.136 ± 0.0083
CCGCA	0.678 ± 0.047	2.08 ± 0.025	1.83 ± 0.043	0.764 ± 0.0084
CCGCU	0.291 ± 0.035	2.09 ± 0.012	1.81 ± 0.024	0.381 ± 0.0062
CCGCC	1.17 ± 0.096	2.0217 ± 0.0019	1.96 ± 0.033	1.18 ± 0.036
UCCCG	1.07 ± 0.16	2.027 ± 0.0081	2.008 ± 0.0028	1.055 ± 0.0097
UCCCU	0.877 ± 0.032	2.08 ± 0.12	1.97 ± 0.026	1.03 ± 0.11
UCCCC	1.11 ± 0.13	2.005 ± 0.019	2.01 ± 0.053	1.06 ± 0.032
CGAGC	0.548 ± 0.016	2.013 ± 0.0077	1.94 ± 0.042	0.508 ± 0.037
CGAGU	0.892 ± 0.093	1.992 ± 0.01	1.9 ± 0.02	0.873 ± 0.12
CGAGA	0.788 ± 0.0071	1.93 ± 0.022	1.58 ± 0.18	0.841 ± 0.032
CGCAA	0.17 ± 0.043	1.888 ± 0.006	1.49 ± 0.074	0.271 ± 0.06
CGCAC	0.436 ± 0.065	2.01 ± 0.17	1.9 ± 0.14	0.521 ± 0.017
AGCAC	0.712 ± 0.13	2.08 ± 0.088	1.91 ± 0.12	0.669 ± 0.012
AGCAA	0.327 ± 0.12	1.94 ± 0.035	1.46 ± 0.09	0.627 ± 0.067
